This note sets out measurements from US20250320305A1 (Hoffmann-La Roche, published 2025).

Test [1] has as its target T1, human CD40 expressed on cells (human, UniProt P25942 21-277). As to the kind of experiment: cell-based or functional assay.
Test [2] has as its target T2, His-tagged human FAP ectodomain (human, UniProt Q12884 27-760).
T2 construct: also called hu FAP ectodomain+poly-lys-tag+his6-tag; His-tagged FAP antigen
Briefly: SPR, His-tagged human FAP ectodomain as ligand. Background: SPR reads the build-up and loss of mass on a sensor chip optically.

Test [3] concerns the target T3, biotinylated recombinant human FAP (human, UniProt Q12884 26-760, biotinylated).
T3 construct: also called biotinylated human FAP
As to the kind of experiment: SPR (Biacore).

Test [4] has as its target T1, human CD40 expressed on cells. As to the kind of experiment: flow cytometry, Raji cells.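 Note: cell binding of antibodies to Raji cells detected by flow cytometry using an Alexa488-labelled anti-human IgG secondary antibody, primary incubation 1 h at 4 °C.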 In general terms: A flow cytometer gives signals particle by particle.
Protocol: CD40 positive cells (Raji cells) were detatched from the culture bottle using Trypsin and were counted using a Casy cell counter. After pelleting at 4° C., the cells were resuspended in FACS Buffer (2.5% FCS in PBS), adjusted to 2.0E+06 cells/mL, and dispensed to 96-well PP V-bottom-plates (25 μL/well=5.0E+04Zellen/well).
The CD40 specific antibodies were adjusted to 20 μg/mL in FACS buffer, resulting in a final concentration of 10 μg/mL. 20 μl were added to 25 μl cell suspension and incubated for 1 h at 4° C. The cells were then washed twice in FACS buffer. After washing, the cells were resuspended in 50 μL FACS-buffer containing secondary antibody (<huIgG>-Alexa488, c=10 μg/mL) and incubated 1 h bei 4° C. The cells were then washed twice in FACS buffer and resuspended in 70 μl/well FACS buffer for measurement using a FACS Canto (BD, Pharmingen).
Test [5] deals with T4, human CD40 extracellular domain with C-terminal His-AviTag (human, UniProt P25942 21-193).
T4 construct: not shown: C-terminal His-AviTag
As to the kind of experiment: SPR, antibody captured, CD40 ECD analyte.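 Note: biacore SPR at 25 °C in PBS-T pH 7.4, CD40 ECD analyte from 300 nM in 1:3 series, 300 s association, up to 1200 s dissociation, double-referenced, Langmuir 1:1 fit.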

Positions count from the first letter of the chain named. In names and notes the source's numbering stands.

B1: P1AF0873, CD40 (P1AE0817) x FAP (P1AE1689) (1+1) C-terminal crossfab fusion (bispecific antibody, human IgG1, kappa, L234A L235A)
light 1: QVQLVQSGAEVKKPGASVKVSCKASGYTLTDYNMDWVRQAPGQGLEWIGDIYPNTGGTIYNQKFKGRVTMTIDTSTSTVYMELSSLRSEDTAVYYCTRFRGIHYAMDYWGQGTTVTVSSASVAAPSVFIFPPSDEQLKSGTASVVCLLNNFYPREAKVQWKVDNALQSGNSQESVTEQDSKDSTYSLSSTLTLSKADYEKHKVYACEVTHQGLSSPVTKSFNRGEC
light 2: DIVMTQTPLSLSVTPGQPASISCRSSQSLVHSNGNTFLHWYLQKPGQSPQLLIYTVSNRFSGVPDRFSGSGSGTDFTLKISRVEAEDVGVYFCSQTTHVPWTFGGGTKVEIKRTVAAPSVFIFPPSDRKLKSGTASVVCLLNNFYPREAKVQWKVDNALQSGNSQESVTEQDSKDSTYSLSSTLTLSKADYEKHKVYACEVTHQGLSSPVTKSFNRGEC
heavy: not shown
chain: not shown
Regarding B1, the “EC50, two cell line bridging assay (SEAP of HEK-Blue CD40L reporter cells with FAP-expressing WM-266-4 cells)” value in test [1] is 0.0265 nM.

B2: P1AE2734, CD40 (P1AE0817) x FAP (P1AE1689) (2+1) with different C-terminal crossfab fusion (bispecific antibody, human IgG1, kappa, L234A L235A)
light 1: EIVLTQSPATLSLSPGERATLSCRASESVDNYGLSFINWFQQKPGQAPRLLIYGTSNRGSGIPARFSGSGSGTDFTLTISSLEPEDFAVYFCQQSNEVPYTFGGGTKVEIKSSASTKGPSVFPLAPSSKSTSGGTAALGCLVKDYFPEPVTVSWNSGALTSGVHTFPAVLQSSGLYSLSSVVTVPSSSLGTQTYICNVNHKPSNTKVDKKVEPKSC
light 2: B1 light 2 with R128E, K129Q
heavy 1: not shown
heavy 2: QVQLVQSGAEVKKPGASVKVSCKASGYSFTGYYIHWVRQAPGQSLEWMGRVIPNAGGTSYNQKFKGRVTLTVDKSISTAYMELSRLRSDDTAVYYCAREGIYWWGQGTTVTVSSASTKGPSVFPLAPSSKSTSGGTAALGCLVKDYFPEPVTVSWNSGALTSGVHTFPAVLQSSGLYSLSSVVTVPSSSLGTQTYICNVNHKPSNTKVDKKVEPKSCDKTHTCPPCPAPEAAGGPSVFLFPPKPKDTLMISRTPEVTCVVVDVSHEDPEVKFNWYVDGVEVHNAKTKPREEQYNSTYRVVSVLTVLHQDWLNGKEYKCKVSNKALGAPIEKTISKAKGQPREPQVCTLPPSRDELTKNQVSLSCAVKGFYPSDIAVEWESNGQPENNYKTTPPVLDSDGSFFLVSKLTVDKSRWQQGNVFSCSVMHEALHNHYTQKSLSLSPG
notes: bivalent for CD40, monovalent for FAP; also called VH-Ckappa fused to Fc
As to B2, in test [2], binding was put at a Kd of 0.21 nM; the koff (as a rule, the first-order rate constant of dissociation) was found to be 5.2e-05 s⁻¹; the kon – broadly, the rate constant with which the complex forms – came to 250000 M⁻¹ s⁻¹.

B3: P1AE1702_Fab, humanized anti-FAP clone 212 variant with VL2G2a (Fab, V domains shown)
VH: EVQLLESGGGLVQPGGSLRLSCAASGYTLTDYNMDWVRQAPGKGLEWVGDIYPNTGGTIYNQKFKGRFTISIDKSKNTAYLQMNSLRAEDTAVYYCTRFRGIHYAMDYWGQGTTVTVSS
VL: DIQMTQSPSSLSASVGDRVTITCRASESVDNYGLSFINWFQQKPGQPPKLLIYGTSNRGSGVPSRFSGSGSGTDFTLTISSLQPEDFAMYFCQQSNEVPYTFGGGTKVEIK
notes: Fab
In the case of B3, in test [3], the Kd (as a rule, a measure of binding affinity in units of concentration) is 0.213 nM; the “T ½” value came to 1.8 h; the koff amounted to 0.000107 s⁻¹; the kon was 502000 M⁻¹ s⁻¹.

B4: P1AE0996, humanized anti-CD40 antibody VH1a/VL1d, huIgG1_LALA_PG (antibody, V domains shown)
VH: QVQLVQSGAEVKKPGASVKVSCKASGYSFTGYYIHWVRQAPGQSLEWMGRVIPNAGGTSYNQKFKGRVTLTVDKSISTAYMELSRLRSDDTAVYYCAREGIYWWGQGTTVTVSS
VL: DVVVTQTPLSLSVTPGQPASISCRSSQSLVHSNGNTFLHWYLQKPGQSPQLLIYTVSNRFSGVPDRFSGSGSGTDFTLKISRVEAEDVGVYFCSQTTHVPWTFGGGTKLEIK
notes: huIgG1 with effector silent Fc (P329G, L234A, L235A)
For the molecule B4, the concentration giving a half-maximal response (EC50) (usually the concentration needed to bring the measured effect to its halfway point) in test [4] amounted to 0.12 µg/mL. In test [5], this molecule had a Kd of 3.5 nM, a koff of 0.00908 s⁻¹ and a kon of 2.59e+06 M⁻¹ s⁻¹.

B5: P1AE0999, humanized anti-CD40 antibody VH1d/VL1a, huIgG1_LALA_PG (antibody, V domains shown)
VH: B4 VH with T71S
VL: B4 VL with V2I, V4M, L109V
notes: as for B4
In turn, B5 registered an EC50 in test [4] of 0.15 µg/mL. In test [5], this molecule had a Kd of 2.4 nM, a koff of 0.00592 s⁻¹ and a kon of 2.45e+06 M⁻¹ s⁻¹.

B6: P1AE1004, humanized anti-CD40 antibody VH1b/VL1c, huIgG1_LALA_PG (antibody, V domains shown)
VH: B4 VH with Q43K
VL: B4 VL with L109V
notes: as for B4
With B6, a half-maximal effect in test [4] (EC50) was put at 0.14 µg/mL. Further, in test [5], the Kd is 3 nM, the koff amounted to 0.00795 s⁻¹ and the kon came out at 2.63e+06 M⁻¹ s⁻¹.

B7: P1AE1000, humanized anti-CD40 antibody VH1d/VL1c, huIgG1_LALA_PG (antibody, V domains shown)
VH: B4 VH with T71S
VL: B4 VL with L109V
notes: as for B4
The molecule B7 came in with an EC50 in test [4] of 0.14 µg/mL. Further, in test [5], the equilibrium dissociation constant (Kd) was found to be 3.2 nM, the koff amounted to 0.00862 s⁻¹ and the kon came out at 2.68e+06 M⁻¹ s⁻¹.

B8: P1AE1005, humanized anti-CD40 antibody VH1b/VL1d, huIgG1_LALA_PG (antibody, V domains shown)
VH: B4 VH with Q43K
VL: B4 VL
notes: as for B4
For B8, the EC50 in test [4] was 0.11 µg/mL. In test [5], this molecule registered a Kd of 3.2 nM, an off-rate constant (koff) of 0.00816 s⁻¹ and a kon of 2.58e+06 M⁻¹ s⁻¹.

B9: P1AE1006, humanized anti-CD40 antibody VH1c/VL1b, huIgG1_LALA_PG (antibody, V domains shown)
VH: B4 VH with Q106H
VL: B4 VL with V2I, L109V
notes: as for B4
Molecule B9 registered an EC50 in test [4] of 0.14 µg/mL. Besides, in test [5], binding was put at a Kd of 2.6 nM, the koff turned out to be 0.00651 s⁻¹ and the kon came to 2.53e+06 M⁻¹ s⁻¹.

B10: P1AE1002, humanized anti-CD40 antibody VH1b/VL1a, huIgG1_LALA_PG (antibody, V domains shown)
VH: B4 VH with Q43K
VL: B4 VL with V2I, V4M, L109V
notes: as for B4
Take B10: in test [4], the EC50 stood at 0.13 µg/mL. In test [5], this molecule registered a Kd of 2.2 nM, a koff of 0.00557 s⁻¹ and an association rate constant (kon) of 2.54e+06 M⁻¹ s⁻¹.

B11: P1AE0998, humanized anti-CD40 antibody VH1c/VL1d, huIgG1_LALA_PG (antibody, V domains shown)
VH: B4 VH with Q106H
VL: B4 VL
notes: as for B4
For B11, in test [4], the EC50 was 0.12 µg/mL. In test [5], this molecule had a dissociation constant (Kd) of 3.3 nM, a koff of 0.00896 s⁻¹ and an on-rate constant (kon) of 2.7e+06 M⁻¹ s⁻¹.

B12: P1AE1003, humanized anti-CD40 antibody VH1b/VL1b, huIgG1_LALA_PG (antibody, V domains shown)
VH: B4 VH with Q43K
VL: B4 VL with V2I, L109V
notes: as for B4
B12 gave an EC50 in test [4] of 0.13 µg/mL. In test [5], the Kd worked out at 2.5 nM, the koff is 0.00606 s⁻¹ and the kon was 2.46e+06 M⁻¹ s⁻¹.

B13: P1AE1007, humanized anti-CD40 antibody VH1d/VL1b, huIgG1_LALA_PG (antibody, V domains shown)
VH: B4 VH with T71S
VL: B4 VL with V2I, L109V
notes: as for B4
In the case of B13, in test [4], a half-maximal effect (EC50) was put at 0.12 µg/mL. Further, in test [5], binding was put at a Kd of 2.7 nM, the koff was 0.00662 s⁻¹ and the kon was determined as 2.5e+06 M⁻¹ s⁻¹.

B14: P1AE0997, humanized anti-CD40 antibody VH1c/VL1a, huIgG1_LALA_PG (antibody, V domains shown)
VH: B4 VH with Q106H
VL: B4 VL with V2I, V4M, L109V
notes: as for B4
In test [4], B14 showed a concentration for a half-maximal effect (EC50) of 0.12 µg/mL. In test [5], binding was put at a Kd of 2.3 nM, the koff came out at 0.00603 s⁻¹ and the kon amounted to 2.59e+06 M⁻¹ s⁻¹.

B15: P1AE1001, humanized anti-CD40 antibody VH1a/VL1b, huIgG1_LALA_PG (antibody, V domains shown)
VH: B4 VH
VL: B4 VL with V2I, L109V
notes: as for B4
B15: the midpoint of the response in test [4], the EC50, lay at 0.08 µg/mL. In test [5], this molecule gave an equilibrium dissociation constant (Kd) of 2.7 nM, a koff of 0.00681 s⁻¹ and a kon of 2.56e+06 M⁻¹ s⁻¹.

B16: P1AA9663, CD40 (huCD40) x FAP (28H1) (2+2) C-terminal crossfab fusion (bispecific antibody, human IgG1, kappa, L234A L235A)
light 1: EVQLLESGGGLVQPGGSLRLSCAASGFTFSSHAMSWVRQAPGKGLEWVSAIWASGEQYYADSVKGRFTISRDNSKNTLYLQMNSLRAEDTAVYYCAKGWLGNFDYWGQGTLVTVSSASVAAPSVFIFPPSDEQLKSGTASVVCLLNNFYPREAKVQWKVDNALQSGNSQESVTEQDSKDSTYSLSSTLTLSKADYEKHKVYACEVTHQGLSSPVTKSFNRGEC
light 2: DIQMTQSPSSLSASVGDRVTITCRSSQSLVHSNGNTFLHWYQQKPGKAPKLLIYTVSNRFSGVPSRFSGSGSGTDFTLTISSLQPEDFATYFCSQTTHVPWTFGQGTKVEIKRTVAAPSVFIFPPSDRKLKSGTASVVCLLNNFYPREAKVQWKVDNALQSGNSQESVTEQDSKDSTYSLSSTLTLSKADYEKHKVYACEVTHQGLSSPVTKSFNRGEC
heavy: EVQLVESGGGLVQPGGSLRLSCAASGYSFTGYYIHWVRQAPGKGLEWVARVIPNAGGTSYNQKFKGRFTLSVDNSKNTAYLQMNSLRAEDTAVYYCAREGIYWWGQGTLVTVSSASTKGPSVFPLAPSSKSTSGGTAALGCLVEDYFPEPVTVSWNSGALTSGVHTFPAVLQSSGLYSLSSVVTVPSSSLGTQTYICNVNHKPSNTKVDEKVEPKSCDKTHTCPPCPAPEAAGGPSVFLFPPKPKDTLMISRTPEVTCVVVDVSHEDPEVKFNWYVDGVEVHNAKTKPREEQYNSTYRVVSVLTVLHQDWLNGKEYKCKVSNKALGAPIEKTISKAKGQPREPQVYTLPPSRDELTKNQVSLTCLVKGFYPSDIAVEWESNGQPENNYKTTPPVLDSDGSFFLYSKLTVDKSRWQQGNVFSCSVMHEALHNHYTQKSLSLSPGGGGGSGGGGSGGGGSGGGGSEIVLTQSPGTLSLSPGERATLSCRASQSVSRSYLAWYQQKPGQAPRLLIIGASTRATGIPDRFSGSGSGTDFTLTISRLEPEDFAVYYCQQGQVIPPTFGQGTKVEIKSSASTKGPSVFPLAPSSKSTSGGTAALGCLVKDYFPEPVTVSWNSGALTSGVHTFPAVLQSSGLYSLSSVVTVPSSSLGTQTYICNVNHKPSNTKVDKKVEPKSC
Regarding B16, the “EC50, two cell line bridging assay (SEAP of HEK-Blue CD40L reporter cells with FAP-expressing WM-266-4 cells)” value in test [1] is 0.0132 nM.

B17: P1AE1690_Fab, humanized anti-FAP clone 212 variant VH1G2a/VL1G1a (Fab, V domains shown)
VH: QVQLVQSGAEVKKPGASVKVSCKASGYTLTDYNMDWVRQAPGKSLEWIGDIYPNTGGTIYNQKFKGRVTMTIDKSTSTVYMELSSLRSEDTAVYYCTRFRGIHYAMDYWGQGTTVTVSS
VL: EIVLTQSPATLSLSPGERATLSCRASESVDNYGLSFINWFQQKPGQAPRLLIYGTSNRGSGIPARFSGSGSGTDFTLTISSLEPEDFAVYFCQQSNEVPYTFGGGTKVEIK
notes: Fab
On to B17, for which, in test [3], the Kd is 0.114 nM, the “T ½” value was found to be 3.05 h, the koff turned out to be 6.3e-05 s⁻¹ and the kon came to 551000 M⁻¹ s⁻¹.

B18: P1AE1689_Fab, humanized anti-FAP clone 212 variant VH1G1a/VL1G1a (Fab, V domains shown)
VH: B17 VH with K43Q, S44G, K74T
VL: B17 VL
notes: Fab
On to B18, for which, in test [3], the Kd was found to be 0.095 nM, the “T ½” value stood at 4.57 h, the koff amounted to 4.21e-05 s⁻¹ and the kon was found to be 443000 M⁻¹ s⁻¹.

B19: P1AE1693_Fab, humanized anti-FAP clone 212 variant VH1G2a/VL1G2a (Fab, V domains shown)
VH: B17 VH
VL: B17 VL with A47P
notes: Fab
Take B19: in test [3], the Kd amounted to 0.135 nM, the “T ½” value turned out to be 2.68 h, the koff is 7.18e-05 s⁻¹ and the kon was found to be 530000 M⁻¹ s⁻¹.
